Data published in patent US20060154859A1.

Legend:
[1] = target: long form of human leptin receptor (human) (UniProt P48357); experiment: cell-based or functional assay
[2] = target: recombinant chicken leptin binding domain (chLBD) (chicken); experiment: affinity for chLBD (method not given; compared with the SPR value of WT human leptin)
[3] = target: long form of human leptin receptor (human) (UniProt P48357); experiment: radioreceptor competition assay against iodinated leptin, homogenate of BAF/3 cells with long form of human leptin receptor, average of two experiments
Target sequence in this assay (P48357 22-1165 limits assumed, form in doubt): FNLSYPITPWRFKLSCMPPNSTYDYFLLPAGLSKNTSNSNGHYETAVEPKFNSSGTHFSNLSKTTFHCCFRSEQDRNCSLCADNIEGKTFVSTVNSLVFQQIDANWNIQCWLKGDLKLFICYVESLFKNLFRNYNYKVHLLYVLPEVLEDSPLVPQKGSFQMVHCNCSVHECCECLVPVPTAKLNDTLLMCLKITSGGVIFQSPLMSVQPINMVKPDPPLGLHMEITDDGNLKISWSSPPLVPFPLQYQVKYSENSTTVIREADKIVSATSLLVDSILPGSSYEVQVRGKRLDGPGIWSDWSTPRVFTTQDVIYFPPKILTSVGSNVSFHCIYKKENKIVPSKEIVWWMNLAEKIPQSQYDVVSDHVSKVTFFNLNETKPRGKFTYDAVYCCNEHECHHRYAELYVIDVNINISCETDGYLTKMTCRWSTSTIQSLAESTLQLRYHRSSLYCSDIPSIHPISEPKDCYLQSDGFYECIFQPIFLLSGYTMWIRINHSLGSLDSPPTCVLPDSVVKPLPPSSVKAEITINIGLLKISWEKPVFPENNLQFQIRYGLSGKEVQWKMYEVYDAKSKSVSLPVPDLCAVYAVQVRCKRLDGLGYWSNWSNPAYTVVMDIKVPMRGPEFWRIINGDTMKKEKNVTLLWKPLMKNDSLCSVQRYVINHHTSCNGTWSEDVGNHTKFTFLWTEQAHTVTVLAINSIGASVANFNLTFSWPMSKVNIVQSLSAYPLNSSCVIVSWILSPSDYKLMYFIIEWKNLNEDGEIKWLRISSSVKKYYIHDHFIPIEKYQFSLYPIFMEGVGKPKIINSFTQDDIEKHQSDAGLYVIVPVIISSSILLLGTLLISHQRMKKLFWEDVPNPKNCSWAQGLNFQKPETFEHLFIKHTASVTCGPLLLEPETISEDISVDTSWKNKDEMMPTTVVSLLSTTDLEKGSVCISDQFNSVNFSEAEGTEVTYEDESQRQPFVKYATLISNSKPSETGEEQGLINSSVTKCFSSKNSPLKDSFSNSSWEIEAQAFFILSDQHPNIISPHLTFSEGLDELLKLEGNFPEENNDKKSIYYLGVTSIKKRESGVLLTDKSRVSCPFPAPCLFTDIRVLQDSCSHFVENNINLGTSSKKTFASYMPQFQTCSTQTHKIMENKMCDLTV

[4] = target: recombinant chicken leptin binding domain (chLBD) (chicken); experiment: SPR (Biacore 3000), leptin amine-coupled to CM5 chip, soluble chLBD as analyte, 25 C, 1:1 Langmuir fit, mean of 2 experiments
[5] = target: long form of human leptin receptor (human) (UniProt P48357); experiment: radioreceptor assay, homogenate from 1.75x10^6 BAF/3 cells with human leptin receptor per tube
Target sequence in this assay (P48357 22-1165 limits assumed, form in doubt): as above

Row | Substance | IC50 for inhibition in the Baf/3 bioassay [1] | Kd [2] | IC50 for inhibition in the Baf/3 bioassay, fold against L39A/D40A/F41A or L39A/D40A/F41A/I42A [1] | EC50 in Baf/3 bioassay (proliferation of BAF/3 cells transfected with the long form of human leptin receptor, MTT) [1] | IC50 [3] | Kd [4] | koff [4] | kon [4] | specific binding [5]
1 | human leptin L39A/D40A/F41A/I42A/S120A/T121A mutant (from UniProt P41159 22-167) (ligand) | 14.3 nM | 26.9 nM | – | – | – | – | – | – | –
2 | human leptin S120A/T121A mutant (from UniProt P41159 22-167) (ligand) | 165 nM | 29.5 nM | 150 fold | – | – | – | – | – | –
3 | wild-type (WT) human leptin, recombinant (from UniProt P41159 22-167) (ligand) | – | – | – | 0.022 nM | 5.33 nM | 28.8 nM | 0.0043 s⁻¹ | 149000 M⁻¹ s⁻¹ | 6 to 7%
4 | wild-type (WT) ovine leptin, recombinant (from UniProt Q28603 1-146) (ligand) | – | – | – | 0.037 nM | 1.47 nM | 22.8 nM | 0.0037 s⁻¹ | 162000 M⁻¹ s⁻¹ | –
